Target: T1, SIVA2
T1 chain: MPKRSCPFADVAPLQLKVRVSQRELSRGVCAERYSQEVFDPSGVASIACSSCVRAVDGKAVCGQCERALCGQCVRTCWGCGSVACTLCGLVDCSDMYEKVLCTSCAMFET

B1: NF-κB-inducing kinase, NIK, (MAP3K14) (protein)
chain: MAVMEMACPGAPGSAVGQQKELPKAKEKTPPLGKKQSSVYKLEAVEKSPVFCGKWEILNDVITKGTAKEGSEAGPAAISIIAQAECENSQEFSPTFSERIFIAGSKQYSQSESLDQIPNNVAHATEGKMARVCWKGKRRSKARKKRKKKSSKSLAHAGVALAKPLPRTPEQESCTIPVQEDESPLGAPYVRNTPQFTKPLKEPGLGQLCFKQLGEGLRPALPRSELHKLISPLQCLNHVWKLHHPQDGGPLPLPTHPFPYSRLPHPFPFHPLQPWKPHPLESFLGKLACVDSQKPLPDPHLSKLACVDSPKPLPGPHLEPSCLSRGAHEKFSVEEYLVHALQGSVSSGQAHSLTSLAKTWAARGSRSREPSPKTEDNEGVLLTEKLKPVDYEYREEVHWATHQLRLGRGSFGEVHRMEDKQTGFQCAVKKVRLEVFRAEELMACAGLTSPRIVPLYGAVREGPWVNIFMELLEGGSLGQLVKEQGCLPEDRALYYLGQALEGLEYLHSRRILHGDVKADNVLLSSDGSHAALCDFGHAVCLQPDGLGKSLLTGDYIPGTETHMAPEVVLGRSCDAKVDVWSSCCMMLHMLNGCHPWTQFFRGPLCLKIASEPPPVREIPPSCAPLTAQAIQEGLRKEPIHRVSAAELGGKVNRALQQVGGLKSPWRGEYKEPRHPPPNQANYHQTLHAQPRELSPRAPGPRPAEETTGRAPKLQPPLPPEPPEPNKSPPLTLSKEESGMWEPLPLSSLEPAPARNPSSPERKATVPEQELQQLEIELFLNSLSQPFSLEEQEQILSCLSIDSLSLSDDSEKNPSKASQSSRDTLSSGVHSWSSQAEARSSSWNMVLARGRPTDTPSYFNGVKVQIQSLNGEHLHIREFHRVKVGDIATGISSQIPAAAFSLVTKDGQPVRYDMEVPDSGIDLQCTLAPDGSFAWSWRVKHGQLENRP
- in vitro kinase assay (phosphorylation of SIVA2): NIK readily phosphorylated SIVA2

Reference: patent publication US20100204091
